{
  "source": "ChEMBL document CHEMBL1130869",
  "about": "“Peptide-based inhibitors of the hepatitis C virus serine protease” (Bioorg Med Chem Lett, 1998)",
  "proteins": {"B1": {"name": "Hepatitis C virus serine protease, NS3/NS4A (Hepatitis C virus), D2K2A8+A3EZI9 (protein)", "chain 1": "STWVLLGGVLAALAAYCLSVGCVVIVGYIELGGKPALVPDKEVCYQQYDEMEEC", "chain 2": "APITAYAQQTRGLLGCIITSLTGRDKNQVEGEVQIVSTAAQTFLATCINGVCWTVYHGAGTRTIASSKGPVIQMYTNVDQDLVGWPAPQGARSLTPCTCGSSDLYLVTRHADVIPVRRRGDGRGSLLSPRPISYLKGSSGGPLLCPAGHAVGIFRAAVCTRGVAKAVDFIPVEGLETTMRSPVFSDNSSPPAVPQSYQVAHLHAPTGSGKSTKVPAAYAAQGYKVLVLNPSVAATLGFGAYMSKAHGIDPNIRTGVRTITTGSPITYSTYGKFLADGGCSGGAYDIIICDECHSTDATSILGIGTVLDQAETAGARLTVLATATPPGSVTVPHPNIEEVALSTTGEIPFYGKAIPLEAIKGGRHLIFCHSKKKCDELAAKLVALGVNAVAYYRGLDVSVIPASGDVVVVATDALMTGFTGDFDSVIDCNTCVTQTVDFSLDPTFTIETTTLPQDAVSRTQRRGRTGRGKPGIYRFVTPGERPSGMFDSSVLCECYDAGCAWYELTPAETTVRLRAYMNTPGLPVCQDHLEFWEGVFTGLTHIDAHFLSQTKQSGENLPYLVAYQATVCARAQAPPPSWDQMWKCLIRLKPTLHGPTPLLYRLGAVQNEITLTHPITKYIMTCMSADLEVVT"}},
  "substrate": "CC[C@H](C)[C@H](NC(=O)[C@H](CC(=O)O)NC(=O)[C@@H](N)CC(=O)O)C(=O)N[C@H](C(=O)N1CCC[C@H]1C(=O)N[C@@H](CS)C(=O)O)C(C)C",
  "assay": "Km against NS3-4Apep protease determined by non-linear regression analysis of the velocity data",
  "assay_type": "protein-complex assay",
  "details": "Hepacivirus hominis",
  "data": [
    {"protein": "B1", "values": [
      {"measurement": "Km", "result": 37, "unit": "µM"}
    ]}
  ]
}
